Measured values: IntAct's records for PubMed 20176808

B1: Inactive serine/threonine-protein kinase TEX14 (Mus musculus), Q7M6U3 (parent)
chain: MSRGAPFPVPCPVLLGTFTDDSLEAQLHEYAKQGNCVKLKKILKKGVCVDAVNTQGQSALFVAALLGHVKLVDVLVDYGSDPNHRCFDGSTPVHAAAFSGNQWILSKLLTAGGDLRLHDEKGRNPQAWALTAGKDRSTQMVEFMQRCTSHMKAIIQGFSYDLLKKIDSPQRLIGSPPWFGSLIQGSPNSSPNRQLKPGIISAQNIYSFGFGKFYLTSGMQLTYPGSLPVIGEKEVVQADDEPTFSFFSGPYMVMTNLVWNRSRVTVKELNLPTRPHCSRLRLADLLIAEQEHSSNLRHPNLLQLMAVCLSRDLEKIRLVYERITVGTLFSVLHERRSQFPVLHMEVIVHLLLQVADALIYLHSRGFIHRSLSSYAVHIVSAGEARLTNLEYLTESQDSGAHRNVTRMPLPTQLYNWAAPEVVLQKAATVKSDIYSFSVIIQEILTDSIPWNGLDGSLVKETIALGNYLEADVRLPEPYYDIVKSGIHAKQKNRTMNLQDIRYILKNDLKEFIGAQKTQPTESPRGQSYEPHPDVNICLGLTSEYQKDPPDLDIKELKEMGSQPHSPTDHSFLTVKPTLAPQTLDSSLSAQKPDNANVPSPPAACLAEEVRSPTASQDSLCSFEINEIYSGCLTLGTDKEEECLGTAASPEGDRPNQGDELPSLEEELDKMERELHCFCEEDKSISEVDTDLLFEDDDWQSDSLGSLNLPEPTREAKGKTSSWSKTDEYVSKCVLNLKISQVMMQQSAEWLRKLEQEVEELEWAQKELDSQCSSLRDASLKFANAKFQPAVGPPSLAYLPPVMQLPGLKQPENGGTWLTLARSPGNEREFQEGHFSKKPEKLSACGWKPFTQVSEESRGDCSELNNQLPTLRGPGKQSTGEQLPSTQEARESLEKNTNQNSRSMASVSSEIYATKSRNNEDNGEAHLKWRLAVKEMAEKAVSGQLLLPPWNPQSSAPFESKVENESTPLPRPPIRGPESTEWQHILEYQRENDEPKGNTKFGKMDNSDCDKNKHSRWTGLQRFTGIRYPFFRNHEQPEQNEASQASCDTSVGTEKFYSTSSPIGDDFERFQDSFAQRQGYVEENFQIREIFEKNAEILTKPQFQAIQCAEDKQDETLGETPKELKEKNTSLTDIQDLSSITYDQDGYFKETSYKTPKLKHAPTSASTPLSPESISSAASHYEDCLENTTFHVKRGSTFCWNGQEAMRTLSAKFTTVRERAKSLESLLASSKSLPAKLTDSKRLCMLSETGSSNVSAAFVTSTHATKRKSLPRELAEATSQQHLDELPPPAQELLDEIEQLKQQQVSSLASHENTARDLSVTNKDKKHLEEQETNSSKDSSFLSSREIQDLEDTERAHSSLDEDLERFLQSPEENTALLDPTKGSTREKKNKDQDVVEQKRKKKESIKPERRESDSSLGTLEEDELKPCFWKRLGWSEPSRIIVLDQSDLSD
partner: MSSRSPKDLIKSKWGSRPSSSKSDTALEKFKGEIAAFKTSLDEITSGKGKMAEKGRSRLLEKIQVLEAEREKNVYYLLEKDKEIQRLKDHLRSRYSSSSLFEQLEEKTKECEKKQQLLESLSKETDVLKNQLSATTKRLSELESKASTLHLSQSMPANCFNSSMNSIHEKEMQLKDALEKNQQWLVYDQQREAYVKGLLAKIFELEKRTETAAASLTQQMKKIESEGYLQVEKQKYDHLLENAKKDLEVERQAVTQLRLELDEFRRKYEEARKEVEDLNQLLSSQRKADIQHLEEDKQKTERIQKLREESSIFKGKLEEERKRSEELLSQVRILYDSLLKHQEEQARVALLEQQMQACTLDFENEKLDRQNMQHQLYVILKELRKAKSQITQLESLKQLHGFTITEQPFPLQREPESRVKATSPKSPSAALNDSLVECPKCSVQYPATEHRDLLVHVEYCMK

Variants of: B1
Conditions: with cep55_mouse Cep55, Q8BT07

Variant | effect of a mutation on the interaction
P792A | disrupting interaction
Y797A | disrupting interaction
P793A | decreasing interaction
